Data taken from paper PMC12513289 (The Journal of Biological Chemistry, 2025).

Biological target: the molecule itself
Experiment: mass photometry, R534* homodimer

B1: human AsnRS R534∗ (ΔR534-P548), N-terminal 6xHis tag (enzyme, UniProt O43776 1-533, looked up)
chain: MVLAELYVSDREGSDATGDGTKEKPFKTGLKALMTVGKEPFPTIYVDSQKENERWNVISKSQLKNIKKMWHREQMKSESREKKEAEDSLRREKNLEEAKKITIKNDPSLPEPKCVKIGALEGYRGQRVKVFGWVHRLRRQGKNLMFLVLRDGTGYLQCVLADELCQCYNGVLLSTESSVAVYGMLNLTPKGKQAPGGHELSCDFWELIGLAPAGGADNLINEESDVDVQLNNRHMMIRGENMSKILKARSMVTRCFRDHFFDRGYYEVTPPTLVQTQVEGGATLFKLDYFGEEAFLTQSSQLYLETCLPALGDVFCIAQSYRAEQSRTRRHLAEYTHVEAECPFLTFDDLLNRLEDLVCDVVDRILKSPAGSIVHELNPNFQPPKRPFKRMNYSDAIVWLKEHDVKKEDGTFYEFGEDIPEAPERLMTDTINEPILLCRFPVEIKSFYMQRCPEDSRLTESVDVLMPNVGEIVGGSMRIFDSEEILAGYKREGIDPTPYYWYTDQRKYGTCPHGGYGLGLERFLTWILNRYHI
notes: also called His-R534∗; R534∗ mutant; source: E. coli BL21(DE3) or BL21 ClearColi, purified (Ni-NTA, heparin, SEC); not shown: His6, N-terminal, kept
Kd: 54.4 nM
